Results: patent US7378498B2, “Protein encoded by a nucleic acid” (The Johns Hopkins University School of Medicine, priority 1998, dated 2008)

B1: truncated form of Homer: 186 amino acid amino-terminal fragment of Homer 1b, lacks the coiled-coil domain, expressed by transfection (protein)
chain: MGEQPIFSTRAHVFQIDPNTKKNWVPTSKHAVTVSYFYDSTRNVYRIISLDGSKAIINSTITPNMTFTKTSQKFGQWADSRANTVYGLGFSSEHHLSKFAEKFQEFKEAARLAKEKSQEKMELTSTPSQESAGGDLQSPLTPESINGTDDERTPDVTQNSEPRAEPTQNALPFPHSSAISKHWEAE
modifications: left off: small tags and cut ends
notes: 186 amino acid amino-terminal fragment of Homer 1b, lacks the coiled-coil domain, expressed by transfection
B2: Homer 1b: full-length Homer 1b expressed from pRK5 plasmid in Purkinje cells (protein, listed as Homo sapiens)
chain: MGEQPIFSTRAHVFQIDPNTKKNWVPTSKHAVTVSYFYDSTRNVYRIISLDGSKAIINSTITPNMTFTKTSQKFGQWADSRANTVYGLGFSSEHHLSKFAEKFQEFKEAARLAKEKSQEKMELTSTPSQESAGGDLQSPLTPESINGTDDERTPDVTQNSEPRAEPTQNALPFSHSSAISKHWEAELATLKGNNAKLTAALLESTANVKQWKQQLAAYQEEAERLHKRVTELECVSSQANAVHTHKTELNQTIQELEETLKLKEEEIERLKQEIDNARELQEQRDSLTQKLQEVEIRNKDLEGQLSDLEQRLEKSQNEQEAFRNNLKTLLEILDGKIFELTELRDNLAKLLECS

Tests used:
[1] = biological target: binding of mGluR1a or mGluR5 to each of the Homer family members; assay: Synthetic peptide block of mGluR1a/mGluR5 binding to Homer family members; conditions: synthetic 10 mer peptides, read-out: peptide concentration at which approximately half of the binding was blocked
Experimental: This exquisite sensitivity of Homer binding to changes in single amino acids within the Homer-ligand site was confirmed in other Homer-interacting proteins including mGluR1a (Tu et al., 1998), Shank (Tu et al., 1999), and I42 (see below). To further confirm that the interaction was mediated by a direct interaction at the Homer-ligand site (as opposed to a secondary allosteric effect on a remote binding site), synthetic 10-mer peptides with either the wild type, or F-to-R mutation were prepared. The wild type peptide blocked binding of mGluR1a or mGluR5 to each of the Homer family members (Tu et al., 1998). Approximately half of the binding was blocked at a peptide concentration of 3.4 micromolar.
Mutations of mGluR5 were initially tested in the context of a 250aa C-terminal fragment, but were also determined to have an identical effect on binding when placed in the full length mGluR5 protein (Tu et al., 1998). This exquisite sensitivity of Homer binding to changes in single amino acid within the Homer-ligand site has been confirmed in other Homer-interacting proteins including mGluR1a (Tu et al., 1998), Shank (Tu et al., 1999) and I42 (see below). […] Approximately half of the binding was blocked at a peptide concentration of 3.4 micromolar.

[2] = test system: mGluR-evoked Ca^+2 responses in Purkinje cells; assay: Fura-2 ratio imaging of quisqualate-evoked Ca2+ mobilization in transfected cerebellar Purkinje cells; format: cell-based, mouse; conditions: mean±SEM; transfected Purkinje cells, quisqualate micropressure pulse, Ca^+2-free external saline
Source text: The truncated Homer protein used lacks the coiled-coil domain and is unable to form a bridge linking the mGluR at the cell surface with intracellular inositol trisphosphate receptors. The truncated form of Homer protein resembled Homer 1a with the exception of 11 residues at the carboxy-terminal. This form of Homer results in enhanced expression of Homer protein as compared with transfection of Homer 1a in heterologous cells. The Homer protein was introduced into Purkinje cells in primary cerebellar cultures and glutamate induced effects on calcium mobilization was measured.
Embryonic mouse cerebellar cultures were prepared and maintained according to the method of Schilling et al. (Schilling et al., Neuron 7:891 1991). At 4-5 DIV, cultures were transfected with plasmids coding for E-GFP (Clontech) and either full-length Homer 1b or an IEG form of Homer 1. The IEG form of Homer 1 was a 186 amino acid amino-terminal fragment of Homer 1b. Plasmids were purified by cesium banding. Three combinations of the plasmids were transfected. Group I (control), 20 Tg of E-GFP and 40 Tg of pRK5 vector; group II, 20 Tg of E-GFP and 40 Tg of pRK5 Homer 1 IEG; group III: 20 Tg of E-GFP and 40 Tg of pRK5 Homer 1b. Plasmid DNA was mixed with gold particles (0.6 micron), and coated onto plastic tubing. DNA was then ballistically transfected into cells according to the manufacturer's protocol (Helios Gene Gun System, BIO-RAD). After transfection, cultures were returned to the incubator and maintained for an additional […] for a total of 7-8 DIV at the time of use for imaging experiments.
Patch electrodes were attached to the somata of GFP-expressing Purkinje cells and a holding potential of −60 mV was applied. Micropressure electrodes (1 Tm tip diameter) were filled with quisqualate (100 Tm in external saline) and were positioned ˜20 Tm away from large-caliber dendrites. Test pulses were delivered using positive pressure (6 psi, 1 sec). Cells were bathed in a solution that contained (in mM) NaCl (140), KCl (5), EGTA (0.2), MgCl2 (0.8), HEPES (10), glucose (10), tetrodotoxin (0.005), and picrotoxin (0.1), adjusted to pH 7.35 with NaOH, which flowed at a rate of 0.5 ml/m The recording electrode contained CsCl (135), HEPES (10), fura-2 K5 salt (0.2), and Na2-ATP (4), adjusted to pH 7.35 with CSOH. Patch electrodes yielded a resistance of 3-5 MA when measured with the internal and external salines described above.
Fura-2 ratio imaging of intracellular free Ca^2+, was accomplished by measuring the background corrected fluorescence ratio at 340 and 380 nm excitation using a cooled CCD camera system, as previously described (Linden et al., J Neurosci 15:5098 1995). Exposure times were 200 msec per single wavelength image. Experiments were conducted at room temperature. Enhanced GFP is weakly excited by illumination in the 380-400 nm spectrum. Based upon the bandpass characteristics of our 340HT15 and 380HT10 excitation filters and the absorption spectrum of enhanced GFP (Clontech), we estimate that <1% of the signal at 340 nm excitation and <5% of the signal at 380 nm excitation is contributed by GFP, even in those cells where the fura/GFP loading ratio is smallest. This could lead to a small (<5%) systemic underestimation of free calcium concentration that should distribute randomly across experimental groups.
Calcium mobilization in the absence of influx was measure by ratio imaging fura-2 in Purkinje cells bathed in Ca^+2-free external saline and stimulated with a micropressure pulse of quisqualate, a metabotropic glutamate receptor agonist (Linden, Neuron 17:483 1996). […] The decay phase of the Ca^+2 response appeared somewhat slower in neurons transfected with the truncated form. […]

Molecule	IC50 [1] [µM]	mGluR-evoked Ca^+2 response amplitude [2] [nM]	mGluR-evoked Ca^+2 response latency [2] [s]
synthetic 10 mer peptide with the wild type Homer-ligand site; possibly SEQ ID NO:14 ALTPPSPFRD (extended region for peptide binding) [wild type peptide]	~3.4	–	–
B1	–	170 ± 9	10.5 ± 1.8
B2	–	244 ± 17	4.2 ± 0.9
